# Results as given in the nanobody polyreactivity screen of Harvey et al. (2022).
# Experiment: yeast display, Sf9 membrane polyspecificity reagent, FACS + sequencing; frameworks hold sequencing errors
# Procedure, shortened: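 Polyreactivity labels are assigned by the sorting gate from which each nanobody was recovered. The gates were low and high (top ~1%), set on anti-HA fluorescence for expression and streptavidin fluorescence for reagent binding. Before sorting, galactose-induced (36–48 hours) yeast display cells were stained for 1 hour at 4 °C with 10% biotinylated, detergent-solubilized Sf9 membrane reagent.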
row,Sequence,polyreactivity (PSR sort gate)
1,QVQLVESGGGLVQAGGSLRLSCAASGFTFYAYAMGWYRQAPGKERELVAAISKRGGITYYADSVKGRFTISRDNAKNTVYLQMNSLKPEDTAVYYCNADRRRRSGGFAGWHFQRNDYWGQGTLVTVSS,low polyreactivity
2,QVQLVESGGGLVQAGGSLRLSCAASGFTFYAYAMGWYRQAPGKERELVAAISTSGTDTYYADSVKGRFTISRDNAKNTVYLQMNSLKPEDTAVYYCAAELYLYGFYEPIYPYSYDYWGHGTQVTVSS,low polyreactivity
3,QVQLVESGGGLVQAGGSLRLSCAASGFTFYAYTMGWYRQAPGKERELVAAIRTGSSTYYADSVKGRFTISRDNAKITVYLQMNSLKPEDTAVYYCDAPRWRRPYRYDYWGQGTQVTVSS,high polyreactivity
4,QVQLVESGGGLVQAGGSLRLSCAASGFTFYENAMGWYRQAPGKERELVATISYSGGTTYYADSVKGRFTISRDNAKNTVYLQMNSLKPEDTAVYYCNADYFYYGFPDDYWGQGTQVTVSS,low polyreactivity
5,QVQLVESGGGLVQAGGSLRLSCAASGFTFYEYAMGWYRQAPGKERELVAAITQTGVRTYYADSVKGRFTISRDNAKNTVYLQMNSLKPEDTAVYYCAADDPRQRPRGHYDYWGQGTQVTVSS,low polyreactivity
6,QVQLVESGGGLVQAGGSLRLSCAASGFTFYFYAKGWYTQSPGKERELVASISSSGGSTYADSVKGPFTISRDNAKNTVYLQMNSLKPEDTAVYYCAATEIFRFRYVAVGYDYWGQGTQVTVSS,low polyreactivity
7,QVQLVESGGGLVQAGGSLRLSCAASGFTFYFYAMAWYRQAPGKERELVAAISSGGSTKYADSVKVRFTISRDNAKNTVYLQMKSLKPEDTAVYYCNRYYPGSGPLGYWGQGTQVTVSS,low polyreactivity
8,QVQLVESGGGLVQAGGSLRLSCAASGFTFYGNAMGWYRQAPGKERELVAAISGRGGSTYYADSVKGRFTISRDNAKNTVYLQMNSLKPEVTAVYYCAIYVSWPLYYYWGQGTQVTVSS,low polyreactivity
9,QVQLVESGGGLVQAGGSLRLSCAASGFTFYGNAMGWYRQAPGKERELVAAISGRGGSTYYADSVKGRFTISRDNAKNTVYLQMNSRKPEDTAVYYCNKRGPYRWYSAPYGYWGQGTQVTVSS,low polyreactivity
10,QVQLVESGGGLVQAGGSLRLSCAASGFTFYGNAMGWYRQAPGKERELVAAISSGGSTNYADSVKGRFTISRDNAKNTVYLQMNSLKPEDTAVYYCAASYPGQVSFPYASIGFDYWGQGTQVTVSS,low polyreactivity
11,QVQLVESGGGLVQAGGSLRLSCAASGFTFYGNAMGWYRQAPGKERELVAAISSSGGITYYADSVKGRFTISRDNAKNTVYLQMNSLKPEDTAVYYCAAVQGTPDYEYDSWGQGTQVTVSS,low polyreactivity
12,QVQLVESGGGLVQAGGSLRLSCAASGFTFYGNAMGWYRQAPGKERELVSAISYNGGSTYYADSVKGRFTISRDNAKNTVYLQMNSLKPEDTAVYYCAAGYYWQYTSSSAQYAYDYWGQGTQVTVSS,low polyreactivity
13,QVQLVESGGGLVQAGGSLRLSCAASGFTFYGNSMGWYRQATGKERELVAAITSGGSTYYADSVKGRFTISRDNAKNNVYLQMNSLKPEDTAVYYCAAVNGWRRVKRFDYWGQGTQVTVSS,high polyreactivity
14,QVQLVESGGGLVQAGGSLRLSCAASGFTFYGYAMGWYIQAPGKERELVAAITGSGARTYYADSVKGRFTISRDNAKNTVYLQMNSLKPEDTAVYYCNKVGVTRVGYTYRVREYDYWGQGTQVTVSS,high polyreactivity
15,QVQLVESGGGLVQAGGSLRLSCAASGFTFYGYAMGWYRQAPGKERELVAAISSSGGRTYYADSVKGRFTISRDNAKNTVYLQMNSLKPEDTAVYYCAGDYTSRDYYYWGQGTQVTVSS,high polyreactivity
16,QVQLVESGGGLVQAGGSLRLSCAASGFTFYGYAMGWYRQAPGKERELVAAISTRGSRTYYADSVKGRFTISRDNSKNTVYLQMNSLKPEDTAVYYCAARKKHSGYGRGNYWGQGTQVTVSS,high polyreactivity
17,QVQLVESGGGLVQAGGSLRLSCAASGFTFYGYAMGWYRQAPGKERELVAGITSSGGSTHYADSVKGRFTISRDNAKNTVYLQMNSLKPEDTAVYYCAKVWSFPSNYRAYYYWGQGTQVTVSS,high polyreactivity
18,QVQLVESGGGLVQAGGSLRLSCAASGFTFYGYAMGWYRQAPGKERELVATIRRSTGSTYYADSVKGRFTISRDNAKNTVYLQMNSLKPEDTAVYYCATRVWFPITSYDYWGQGTQVTVSS,low polyreactivity
19,QVQLVESGGGLVQAGGSLRLSCAASGFTFYGYTMGWYRQAPGKEREVVAAITSDGDTNYADSVKGRFTISRDNAKNNVYLQMNSLIPEDTAVYYCNADPGFFFYWWTGDYWGQGTQVTVSS,low polyreactivity
20,QVQLVESGGGLVQAGGSLRLSCAASGFTFYHYAMGWYRQAPGKERELVAAISRSGGSTYYADSVKGRFTISRDNAKNTVYLQMNSLKPEDTAVYYCSKVLRAKNSFDYWGQGTQVTVSS,high polyreactivity
21,QVQLVESGGGLVQAGGSLRLSCAASGFTFYINAMGWYRQAPGKEREFVAAITSRGGSTYYADSVKGRFTISRDNAKNTVYLQMNSLKPEDTAVYYCAARNFLSRRGTYDYWGQGTQVTVSS,high polyreactivity
22,QVQLVESGGGLVQAGGSLRLSCAASGFTFYINVMGWYRQATGKERELVAAITSSGTTNYADSVKGRFTISRDNAKNTVYLQMNSLKPEDTAVYYCAKRSYGGTLHYAFDSWGQGTQVTVSS,low polyreactivity

row,Sequence,polyreactivity (PSR sort gate)
1,QVQLVESGGGLVQAGGSLRLSCAASGFTFYIYAMGWDRQAPGKERELVAAIRASGGSTYYADSVKGRFTISRDSAKNTVYFLMNSLNPDDTAVYYCAADYKVYASWYYAYTFYYWGQGTQVTVSS,low polyreactivity
2,QVQLVESGGGLVQAGGSLRLSCAASGFTFYIYAMGWSRQAPGKERELVAAISSSGGSTYYADSVKGRFTISRDNAKNTVYLQMNSLNPEDTAVYYWNVVRYPVYRTRYYYWGQGTQVTVSS,high polyreactivity
3,QVQLVESGGGLVQAGGSLRLSCAASGFTFYKNAMGWYRQAPGKERELVASISSGGSTKYADSVKGRFTISRDNAKNTVYLQMNSLKPEDTAVYYCAADSGRNRMYYWGQGTQVTVSS,high polyreactivity
4,QVQLVESGGGLVQAGGSLRLSCAASGFTFYKNTMGWYRQAPGKERELVAAISGSGGRTYYADSVKGRFTISRDNAKNTVYLQMTSLKPEDTAVYYCNAAARYRWQYVYSLYEYGHWGQGTQVTVSS,high polyreactivity
5,QVQLVESGGGLVQAGGSLRLSCAASGFTFYKYAIGWYRQAPGKERELVAGIRRGGTNYADSVKGRFTISRDNAKNTVFLQMNSLKPEDTAVYYCAADVRPYYSAYRGRYYYWGQGTQVTVSS,high polyreactivity
6,QVQLVESGGGLVQAGGSLRLSCAASGFTFYLNAMGWYRQAPGKERELVAAISYSDGSPYYADSVKGRFTISRDNAKNTVYLQRNSLKPEDTAVYYCAADTTDPGGAYQLMDYWRQGTQVTVSS,low polyreactivity
7,QVQLVESGGGLVQAGGSLRLSCAASGFTFYLYAMGWYRQAPGKERELVAAISSGGSTNYADSVKGRFTISRDNAKNTVYLQMNSLKPEDTAVYYCNKRYRRATWWITAYDHWGQGTQVTVSS,high polyreactivity
8,QVQLVESGGGLVQAGGSLRLSCAASGFTFYLYTMAWYRQAPGKERELVATITSDGGTNYADSVKGRFTISRDNAKNTVYLQMNSLKPEDTAVYYCARTARRRYQPYEYWGQGTQVTVSS,low polyreactivity
9,QVQLVESGGGLVQAGGSLRLSCAASGFTFYLYTMGWYRQAPGKERELVASLTGSGGSTYYADSVKGRFTISRDNAKNTVYLQMHSLKPEDTAVYYCNARYYVYSATVDRYYHFYYWGQGTQVTVSS,high polyreactivity
10,QVQLVESGGGLVQAGGSLRLSCAASGFTFYNYAMGWYRQAPGKERELVAAITSRGGSTYYADSVKGRFTISRDYAKNTVYLQMNSLKPEDTAVYYCNAVAKLYYWRYDYWGQGTQVTVSS,low polyreactivity
11,QVQLVESGGGLVQAGGSLRLSCAASGFTFYNYAMGWYRQAPGKERELVAVISRSGGRTKYADSVKGRFTISRDNAKNTVYLQMNSLKPEDTAVYYCAARPSPGYYAYRYAPAIHYDYWGQGTQVTVSS,high polyreactivity
12,QVQLVESGGGLVQAGGSLRLSCAASGFTFYPNAMGWYRQAPGKEWELVAAISRSGSSTYYADSVKGRFTISRDNAKNTVYLQMNSVKPEDTAVYDCNRYGRQYDFYYWGQGTQVTVSS,high polyreactivity
13,QVQLVESGGGLVQAGGSLRLSCAASGFTFYPYAMGWYRQAPGKERELVAIRSDGSTYYADSVKGRFTISRDNAKNTVYLQMNCLKPEDTAVYYCNTEPSRDSYSLYFQTRGDYWGQGTQVTVSS,low polyreactivity
14,QVQLVESGGGLVQAGGSLRLSCAASGFTFYPYSMGWYRQAPGKERELVAAITRGGSTYYADSVKGRFTISRDNAKNTVFLQMNSLKPEDTAVYYCNAYWQGYGYYYWGQGTQVTVSS,low polyreactivity
15,QVQLVESGGGLVQAGGSLRLSCAASGFTFYPYTMGWYRQAPGKEREFVAAISWNCGSTYYADSVKGRFTISCDNAKNTVYLQMNSLKPEDTAVYYCAKRSYRSSARELDYWGQGTQVTVSS,low polyreactivity
16,QVQLVESGGGLVQAGGSLRLSCAASGFTFYQYGMGWYRQAPGKERELVATITSGGRTNYADSVKGRFTISRDNAKNTVYLQMNSLKPEDTAVYYCNKLPYYPRFGRIGRYYYWGQGTQVTVSS,high polyreactivity
17,QVQLVESGGGLVQAGGSLRLSCAASGFTFYRNAMGWYRQAPGKERELVAAITLSGTSTYYADSVMGRFTISRDNAKNTVYLQMISLIPEDTAVYYWNTVGYRGPSNSRFYYWGQGTQVTLSS,high polyreactivity
18,QVQLVESGGGLVQAGGSLRLSCAASGFTFYRNAMGWYRQAPGKEREMVAAITWSGTSTYYADSVKGRFTISRDNAKNTVYFQMNSLKPEDTAVYFCNTVGYRGRSNSRFYYWGQGTQVTVSS,high polyreactivity
19,QVQLVESGGGLVQAGGSLRLSCAASGFTFYRNAMGWYRQAPWKERELVATITRSGGSKYYADSVKGRFTISRDNAKNTVYLQMNSLKPEDTEVYYCNDAISGVLVHGNYWGQGTQVTVSS,low polyreactivity
20,QVQLVESGGGLVQAGGSLRLSCAASGFTFYRNAMRWYRQAPGKERELVAAISRGGRTYYADSVKGRFTISRDNAKNTVYLQMNSLKPEDTAVYYCARKYTRKIPASDYWGQGTQVTVSS,high polyreactivity
21,QVQLVESGGGLVQAGGSLRLSCAASGFTFYRNDMGWYRQAPGKEREFVAAITTSGGSTYYADSVKGRFTISRDNAKYTVYLQMNSLKPEDTAVYYCNAYGDGYWKTFGYWGQGTQVTVSS,high polyreactivity
